The test addresses soluble extracellular domain of human DPP4 (residues S39-P766) (human), P27487. The experiment in a line: SEC-MALS. The following applies: remark: other sources report otherwise. (In gel filtration, larger molecules generally elute earlier.)

The term stoichiometry N denotes the number of molecules, sites or subunits per partner or assembly.

B1: soluble extracellular domain of human DPP4 (residues S39-P766), P27487 39-766 (domain or fragment)
chain: SRKTYTLTDYLKNTYRLKLYSLRWISDHEYLYKQENNILVFNAEYGNSSVFLENSTFDEFGHSINDYSISPDGQFILLEYNYVKQWRHSYTASYDIYDLNKRQLITEERIPNNTQWVTWSPVGHKLAYVWNNDIYVKIEPNLPSYRITWTGKEDIIYNGITDWVYEEEVFSAYSALWWSPNGTFLAYAQFNDTEVPLIEYSFYSDESLQYPKTVRVPYPKAGAVNPTVKFFVVNTDSLSSVTNATSIQITAPASMLIGDHYLCDVTWATQERISLQWLRRIQNYSVMDICDYDESSGRWNCLVARQHIEMSTTGWVGRFRPSEPHFTLDGNSFYKIISNEEGYRHICYFQIDKKDCTFITKGTWEVIGIEALTSDYLYYISNEYKGMPGGRNLYKIQLSDYTKVTCLSCELNPERCQYYSVSFSKEAKYYQLRCSGPGLPLYTLHSSVNDKGLRVLEDNSALDKMLQNVQMPSKKLDFIILNETKFWYQMILPPHFDKSKKYPLLLDVYAGPCSQKADTVFRLNWATYLASTENIIVASFDGRGSGYQGDKIMHAINRRLGTFEVEDQIEAARQFSKMGFVDNKRIAIWGWSYGGYVTSMVLGSGSGVFKCGIAVAPVSRWEYYDSVYTERYMGLPTPEDNLDHYRNSTVMSRAENFKQVEYLLIHGTADDNVHFQQSAQISKALVDVGVDFQAMWYTDEDHGIASSTAHQHIYTHMSHFIKQCFSLP
As to B1, the stoichiometry N is 2.

For the origin of these results see paper doi:10.1101/2024.07.12.603331.
